The values that follow are results of earlier work, collected in PMC4676407.

Bounds are passed on as bounds.

This data set has as its target Akt kinase domain kinase domain (Homo sapiens) (UniProt P31749).

Usually Kd stands for the equilibrium constant for the complex coming apart. On to “Akt C-terminal peptide C-terminus (from UniProt P31749)”, for which the Kd is more than 5 mM.
